B1: his-Rad1 (individual subunit) (natural protein, human, UniProt O60671 1-282, looked up)
chain: MPLLTQQIQDEDDQYSLVASLDNVRNLSTILKAIHFREHATCFATKNGIKVTVENAKCVQANAFIQAGIFQEFKVQEESVTFRINLTVLLDCLSIFGSSPMPGTLTALRMCYQGYGYPLMLFLEEGGVVTVCKINTQEPEETLDFDFCSTNVINKIILQSEGLREAFSELDMTSEVLQITMSPDKPYFRLSTFGNAGSSHLDYPKDSDLMEAFHCNQTQVNRYKISLLKPSTKALVLSCKVSIRTDNRGFLSLQYMIRNEDGQICFVEYYCCPDEEVPESES
B2: his-Hus1 (individual subunit) (natural protein, human, UniProt O60921 1-280, looked up)
chain: MKFRAKIVDGACLNHFTRISNMIAKLAKTCTLRISPDKLNFILCDKLANGGVSMWCELEQENFFNEFQMEGVSAENNEIYLELTSENLSRALKTAQNARALKIKLTNKHFPCLTVSVELLSMSSSSRIVTHDIPIKVIPRKLWKDLQEPVVPDPDVSIYLPVLKTMKSVVEKMKNISNHLVIEANLDGELNLKIETELVCVTTHFKDLGNPPLASESTHEDRNVEHMAEVHIDIRKLLQFLAGQQVNPTKALCNIVNNKMVHFDLLHEDVSLQYFIPALS

Molecular target: Human AP endonuclease 1 (human, UniProt P27695 1-318)
Test: pull-down

Human AP endonuclease 1, sequence (P27695 whole entry): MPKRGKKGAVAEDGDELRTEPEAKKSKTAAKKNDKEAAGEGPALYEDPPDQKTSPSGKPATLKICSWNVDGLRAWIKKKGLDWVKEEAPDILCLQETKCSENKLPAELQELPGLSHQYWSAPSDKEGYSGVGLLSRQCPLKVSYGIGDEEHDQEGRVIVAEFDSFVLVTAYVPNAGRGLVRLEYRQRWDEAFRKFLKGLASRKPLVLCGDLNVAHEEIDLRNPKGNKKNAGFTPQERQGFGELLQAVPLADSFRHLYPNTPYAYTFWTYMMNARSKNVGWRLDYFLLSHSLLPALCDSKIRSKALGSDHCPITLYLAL

Row | Binder | binding result
1 | B1 | binds
2 | B2 | binds
